In publication PMC9191634 (Proceedings of the National Academy of Sciences of the …, 2022):

Type: physicochemical
Conditions: n = 3

Substance: AgTx2: scorpion toxin that binds in the external pore region of K+ channels
- partitioning into LUVs: did not partition
